The source of these data is article PMC7505961.

Data set [1] concerns cGAS (human). As to the kind of experiment: EMSA. The settings on record: 5 mM Mg2+, 20 mM Tris-HCl pH 7.6, 60 mM NaCl, 5 mM MgCl2, 10 ul, 30 min on ice, 80 nM (145/185) or 10 nM (2450/oligo) substrate, 1.5% agarose, 0.2x TBE. Background: In EMSA bound probe runs differently from free probe, usually more slowly.
Data set [2] has as its target 145-nucleosome ("601" nucleosome core particle: 145 bp Widom 601 DNA with recombinant histone octamer).
The target in data set [3] is 185-nucleosome (185 bp dsDNA, Widom 601 extended by 20 bp on both ends, with recombinant histone octamer).
The target in data set [4] is 145-nucleosome ("601" nucleosome core particle: 145 bp Widom 601 DNA with recombinant histone octamer). As to the kind of experiment: native gel or EMSA; FAM-labelled nucleosome (0.8 pmol; oligonucleosomes 0.1 pmol) mixed with different amounts of cGAS in 20 mM Tris-HCl pH 7.6, 60 mM NaCl, 5 mM MgCl2, total volume 10 ul; on ice 30 min; 1.5% agarose gel, 0.2x TBE; Kd from percent bound nucleosome against cGAS concentration.

The target in data set [5] is 185-nucleosome (185 bp dsDNA, Widom 601 extended by 20 bp on both ends, with recombinant histone octamer). Described as above.
The target in data set [6] is Oligonucleosomes (2,450 bp dsDNA reconstituted with recombinant histone octamers). The description is as above.

2,450-dsDNA: in data set [1], the Kd (in general, the free concentration of one partner at which half of the binding sites on the other are occupied at equilibrium, for simple one-to-one binding) came out at 68 nM.

The substance 145-dsDNA gave a Kd in data set [1] of 350 nM.

With 145-nucleosome, the Kd in data set [1] worked out at 67 nM.

On to 145-tailless nucleosome, for which, in data set [1] (tailless histones: H4 del1-20, H3 del1-37, H2A del1-15, H2B del1-31), the Kd worked out at 79 nM.

As to 185-dsDNA, the Kd in data set [1] turned out to be 394 nM.

185-nucleosome registered a Kd in data set [1] of 172 nM.

As for Oligonucleosomes, in data set [1], the Kd is 66 nM.

Regarding “human cGAS (cGMP-AMP synthase) (from UniProt Q8N884 1-522) (enzyme)”, the amount of cGAMP after 3 h incubation with cGAS, ATP and GTP (UPLC-MS/MS), against that induced by dsDNA (% of that induced by dsDNA) in data set [2] and in data set [3] was 15 each time. Further, the initial velocity of cGAMP generation in vitro (UPLC-MS/MS; 2 uM cGAS, ATP, GTP, 37 °C), against that induced by 145-dsDNA (ratio to 145-dsDNA) in data set [2] was 0.1. Moreover, the Kd in data set [4] amounted to 67 nM; in data set [5], 172 nM; in data set [6], 66 nM.
